Assay results published in article PMC9482650, “Quantitative fragmentomics allow affinity mapping of interactomes” (Nature Communications, 2022).

T1: PTPN13_1, Q12923
T1 sequence (Q12923 1088-1188, limits assumed, looked up): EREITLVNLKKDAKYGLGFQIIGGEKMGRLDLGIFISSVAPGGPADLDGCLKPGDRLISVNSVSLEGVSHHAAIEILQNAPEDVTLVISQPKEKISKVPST

T2: FRMPD1, Q5SYB0
T2 sequence (Q5SYB0 52-145, limits assumed, looked up): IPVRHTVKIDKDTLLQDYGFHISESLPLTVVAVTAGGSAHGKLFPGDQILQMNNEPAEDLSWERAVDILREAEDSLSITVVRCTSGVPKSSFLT

T3: SNTG2, Q9NY99
T3 sequence (Q9NY99 68-166, limits assumed, looked up): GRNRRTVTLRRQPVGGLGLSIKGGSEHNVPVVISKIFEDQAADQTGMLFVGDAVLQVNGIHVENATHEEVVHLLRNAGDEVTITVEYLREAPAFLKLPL

T4: SNTB1, Q13884
T4 sequence (Q13884 107-205, limits assumed, looked up): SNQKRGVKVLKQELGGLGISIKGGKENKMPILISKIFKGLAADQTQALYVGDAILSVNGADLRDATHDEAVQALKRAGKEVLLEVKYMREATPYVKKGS

T5: LRRC7, Q96NW7
T5 sequence (Q96NW7 1440-1537, limits assumed, looked up): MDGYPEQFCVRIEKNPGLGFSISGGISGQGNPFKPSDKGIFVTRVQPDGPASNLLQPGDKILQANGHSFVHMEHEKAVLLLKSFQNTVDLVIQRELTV

T6: MPDZ_5, O75970
T6 sequence (O75970 695-796, limits assumed, looked up): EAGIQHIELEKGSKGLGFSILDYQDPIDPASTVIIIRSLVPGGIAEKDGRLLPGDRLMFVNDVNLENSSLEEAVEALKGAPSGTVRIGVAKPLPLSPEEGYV

T7: MPP2, Q14168
T7 sequence (Q14168 180-250, limits assumed, looked up): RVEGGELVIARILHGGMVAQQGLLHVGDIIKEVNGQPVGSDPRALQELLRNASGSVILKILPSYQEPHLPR

T8: HTRA4, P83105
T8 sequence (P83105 378-476, limits assumed, looked up): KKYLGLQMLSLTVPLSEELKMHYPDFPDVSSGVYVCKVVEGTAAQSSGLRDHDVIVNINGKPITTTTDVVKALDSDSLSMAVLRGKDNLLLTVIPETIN

T9: SIPA1L2, Q9P2F8
T9 sequence (Q9P2F8 945-1036, limits assumed, looked up): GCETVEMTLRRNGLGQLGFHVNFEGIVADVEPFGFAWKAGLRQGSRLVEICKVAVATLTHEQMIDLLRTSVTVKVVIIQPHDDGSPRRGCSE

T10: NHERF3_4, Q5T2W1
T10 sequence (Q5T2W1 373-468, limits assumed, looked up): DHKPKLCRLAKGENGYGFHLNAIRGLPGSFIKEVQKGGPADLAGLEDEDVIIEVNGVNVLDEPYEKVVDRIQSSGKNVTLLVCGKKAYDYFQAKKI

T11: CARD11, Q9BXL7
T11 sequence (Q9BXL7 662-765, limits assumed, looked up): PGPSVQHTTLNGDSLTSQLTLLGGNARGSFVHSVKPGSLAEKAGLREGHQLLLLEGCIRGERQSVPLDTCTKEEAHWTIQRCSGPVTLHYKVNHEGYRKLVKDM


Key:
Assay in all cases: holdup assay
Set-up in all cases: key: below the threshold = too weak to quantify, mostly under pKd 3.1 to 4
Conditions in all cases: plain residues with an end cap or a label only (N-terminal biotin on a linker: ado-ado)
FRMPD2_2, Q68DX3 = biological target: FRMPD2_2, Q68DX3
PTPN13_1, Q12923 = biological target: T1, PTPN13_1, Q12923
Inadl_1, Q8NI35 = biological target: Inadl_1, Q8NI35
FRMPD1, Q5SYB0 = biological target: T2, FRMPD1, Q5SYB0
DLG1_2, Q12959 = biological target: DLG1_2, Q12959
SNTG2, Q9NY99 = biological target: T3, SNTG2, Q9NY99
SNTB1, Q13884 = biological target: T4, SNTB1, Q13884
LRRC7, Q96NW7 = biological target: T5, LRRC7, Q96NW7
Inadl_5, Q8NI35 = biological target: Inadl_5, Q8NI35
TJP1_3, Q07157 = biological target: TJP1_3, Q07157
MAGI3_2, Q5TCQ9 = biological target: MAGI3_2, Q5TCQ9
MPDZ_5, O75970 = biological target: T6, MPDZ_5, O75970
PICK1, Q9NRD5 = biological target: PICK1, Q9NRD5
DLG4_3, P78352 = biological target: DLG4_3, P78352
MPP2, Q14168 = biological target: T7, MPP2, Q14168
GRIP2_3, Q9C0E4 = biological target: GRIP2_3, Q9C0E4
HTRA4, P83105 = biological target: T8, HTRA4, P83105
SIPA1L2, Q9P2F8 = biological target: T9, SIPA1L2, Q9P2F8
GRASP, Q7Z6J2 = biological target: GRASP, Q7Z6J2
NHERF2_2, Q15599 = biological target: NHERF2_2, Q15599
NHERF3_4, Q5T2W1 = biological target: T10, NHERF3_4, Q5T2W1
NHERF4_1, Q86UT5-2 = biological target: NHERF4_1, Q86UT5-2
CARD11, Q9BXL7 = biological target: T11, CARD11, Q9BXL7
DLG4_2, P78352 = biological target: DLG4_2, P78352
HTRA1, Q92743 = biological target: HTRA1, Q92743
LAP2, Q96RT1 = biological target: LAP2, Q96RT1
LAP2, Q96RT1, sequence (Q96RT1 other isoform, or with tags, fused parts or gaps): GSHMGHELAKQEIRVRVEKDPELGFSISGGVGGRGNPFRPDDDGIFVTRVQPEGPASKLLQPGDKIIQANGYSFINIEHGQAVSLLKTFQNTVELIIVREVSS

FRMPD2_2, Q68DX3, sequence (Q68DX3 944-1038): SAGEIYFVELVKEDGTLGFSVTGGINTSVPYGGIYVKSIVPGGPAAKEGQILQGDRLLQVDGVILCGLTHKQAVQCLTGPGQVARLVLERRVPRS
Inadl_5, Q8NI35, sequence (Q8NI35 673-780): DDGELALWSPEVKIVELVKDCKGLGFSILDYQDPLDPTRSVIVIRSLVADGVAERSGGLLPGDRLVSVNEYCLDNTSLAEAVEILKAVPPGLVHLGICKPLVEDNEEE
MAGI3_2, Q5TCQ9, sequence (Q5TCQ9 398-503): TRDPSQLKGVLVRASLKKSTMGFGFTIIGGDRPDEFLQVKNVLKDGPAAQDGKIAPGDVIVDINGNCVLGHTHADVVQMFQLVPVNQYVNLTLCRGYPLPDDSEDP
TJP1_3, Q07157, sequence (Q07157 416-512): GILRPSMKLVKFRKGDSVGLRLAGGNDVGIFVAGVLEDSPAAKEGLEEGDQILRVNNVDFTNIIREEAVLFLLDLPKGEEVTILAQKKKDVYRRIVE
DLG1_2, Q12959, sequence (Q12959 314-412): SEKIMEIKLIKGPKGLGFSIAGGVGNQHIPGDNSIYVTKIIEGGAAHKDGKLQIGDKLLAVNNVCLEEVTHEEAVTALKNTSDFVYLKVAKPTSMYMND
GRIP2_3, Q9C0E4, sequence (Q9C0E4 238-339): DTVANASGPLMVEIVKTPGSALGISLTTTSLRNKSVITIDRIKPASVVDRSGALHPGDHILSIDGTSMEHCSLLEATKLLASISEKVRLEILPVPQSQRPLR
NHERF4_1, Q86UT5-2, sequence (Q86UT5 other isoform, or with tags, fused parts or gaps): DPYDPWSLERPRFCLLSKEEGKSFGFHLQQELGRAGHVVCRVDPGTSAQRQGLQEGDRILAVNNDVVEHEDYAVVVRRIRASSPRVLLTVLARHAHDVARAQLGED
HTRA1, Q92743, sequence (Q92743 360-477): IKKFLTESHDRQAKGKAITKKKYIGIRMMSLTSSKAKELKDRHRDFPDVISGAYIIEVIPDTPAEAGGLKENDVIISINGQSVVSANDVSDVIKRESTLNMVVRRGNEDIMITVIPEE
GRASP, Q7Z6J2, sequence (Q7Z6J2 96-193): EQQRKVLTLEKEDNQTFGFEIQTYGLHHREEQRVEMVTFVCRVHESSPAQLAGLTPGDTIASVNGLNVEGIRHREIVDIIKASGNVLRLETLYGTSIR
DLG4_2, P78352, sequence (P78352 155-259): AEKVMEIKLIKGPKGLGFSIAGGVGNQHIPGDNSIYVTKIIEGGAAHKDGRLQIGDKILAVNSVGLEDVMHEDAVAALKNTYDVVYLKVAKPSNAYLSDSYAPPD
PICK1, Q9NRD5, sequence (Q9NRD5 17-115): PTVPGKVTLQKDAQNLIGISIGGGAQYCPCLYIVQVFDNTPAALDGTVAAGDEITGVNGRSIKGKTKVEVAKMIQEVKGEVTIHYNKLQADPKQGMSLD
DLG4_3, P78352, sequence (P78352 306-403): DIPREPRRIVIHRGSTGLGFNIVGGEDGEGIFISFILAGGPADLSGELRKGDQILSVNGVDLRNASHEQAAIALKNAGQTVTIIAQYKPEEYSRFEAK
NHERF2_2, Q15599, sequence (Q15599 142-238): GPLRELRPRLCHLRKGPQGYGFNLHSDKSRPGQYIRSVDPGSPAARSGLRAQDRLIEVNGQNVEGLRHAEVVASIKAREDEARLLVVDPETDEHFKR
Inadl_1, Q8NI35, sequence (Q8NI35 113-229): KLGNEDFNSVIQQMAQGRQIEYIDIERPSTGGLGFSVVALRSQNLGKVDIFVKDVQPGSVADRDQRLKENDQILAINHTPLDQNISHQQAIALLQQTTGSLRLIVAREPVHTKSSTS

Row | Binder | pKd (FRMPD2_2, Q68DX3) | pKd (PTPN13_1, Q12923) | pKd (Inadl_1, Q8NI35) | pKd (FRMPD1, Q5SYB0) | pKd (DLG1_2, Q12959) | pKd (SNTG2, Q9NY99) | pKd (SNTB1, Q13884) | pKd (LRRC7, Q96NW7) | pKd (Inadl_5, Q8NI35) | pKd (TJP1_3, Q07157) | pKd (MAGI3_2, Q5TCQ9) | pKd (MPDZ_5, O75970) | pKd (PICK1, Q9NRD5) | pKd (DLG4_3, P78352) | pKd (MPP2, Q14168) | pKd (GRIP2_3, Q9C0E4) | pKd (HTRA4, P83105) | pKd (SIPA1L2, Q9P2F8) | pKd (GRASP, Q7Z6J2) | pKd (NHERF2_2, Q15599) | other results
1 | ANGLMQTSKL [SSTR5, P35346] | below the threshold | below the threshold | below the threshold | below the threshold | below the threshold | 3.62 | below the threshold | below the threshold | below the threshold | below the threshold | below the threshold | below the threshold | 4.08 | below the threshold | below the threshold | below the threshold | 3.7 | below the threshold | 4.68 | 4.64 | pKd (NHERF3_4, Q5T2W1): 4.76; pKd (NHERF4_1, Q86UT5-2): 4.3; pKd (CARD11, Q9BXL7): below the threshold; pKd (DLG4_2, P78352): below the threshold; pKd (HTRA1, Q92743): below the threshold; pKd (LAP2, Q96RT1): below the threshold
2 | PMESGICTIV [TTC24, A2A3L6] | 4.29 | below the threshold | below the threshold | below the threshold | 5.2 | 4.1 | 4.58 | below the threshold | 3.87 | below the threshold | 4.52 | 3.56 | 4.3 | below the threshold | below the threshold | below the threshold | 4.77 | below the threshold | 4.65 | 3.83 | pKd (NHERF3_4, Q5T2W1): below the threshold; pKd (NHERF4_1, Q86UT5-2): 4.2; pKd (CARD11, Q9BXL7): below the threshold; pKd (DLG4_2, P78352): 4.95; pKd (HTRA1, Q92743): 5.07; pKd (LAP2, Q96RT1): below the threshold
3 | GCQGETEDVL [PTH2R, P49190] | below the threshold | below the threshold | below the threshold | below the threshold | below the threshold | below the threshold | below the threshold | below the threshold | below the threshold | below the threshold | below the threshold | below the threshold | 3.99 | below the threshold | below the threshold | below the threshold | below the threshold | below the threshold | 3.62 | 4.03 | pKd (NHERF3_4, Q5T2W1): below the threshold; pKd (NHERF4_1, Q86UT5-2): 3.85; pKd (CARD11, Q9BXL7): below the threshold; pKd (DLG4_2, P78352): below the threshold; pKd (HTRA1, Q92743): 4.14; pKd (LAP2, Q96RT1): below the threshold

The next lines start with results.

Row | pKd (FRMPD2_2, Q68DX3) | pKd (PTPN13_1, Q12923) | pKd (Inadl_1, Q8NI35) | pKd (FRMPD1, Q5SYB0) | pKd (DLG1_2, Q12959) | pKd (SNTG2, Q9NY99) | pKd (SNTB1, Q13884) | pKd (LRRC7, Q96NW7) | pKd (Inadl_5, Q8NI35) | pKd (TJP1_3, Q07157) | pKd (MAGI3_2, Q5TCQ9) | pKd (MPDZ_5, O75970) | pKd (PICK1, Q9NRD5) | pKd (DLG4_3, P78352) | pKd (MPP2, Q14168) | pKd (GRIP2_3, Q9C0E4) | pKd (HTRA4, P83105) | pKd (SIPA1L2, Q9P2F8) | pKd (GRASP, Q7Z6J2) | pKd (NHERF2_2, Q15599) | Binder | other results
4 | below the threshold | below the threshold | below the threshold | below the threshold | below the threshold | below the threshold | below the threshold | below the threshold | below the threshold | below the threshold | below the threshold | below the threshold | below the threshold | below the threshold | below the threshold | below the threshold | below the threshold | below the threshold | below the threshold | below the threshold | SRPRPDDLEI [GJA1, P17302] | pKd (NHERF3_4, Q5T2W1): below the threshold; pKd (NHERF4_1, Q86UT5-2): below the threshold; pKd (CARD11, Q9BXL7): below the threshold; pKd (DLG4_2, P78352): below the threshold; pKd (HTRA1, Q92743): below the threshold; pKd (LAP2, Q96RT1): below the threshold
5 | below the threshold | below the threshold | below the threshold | below the threshold | below the threshold | below the threshold | below the threshold | below the threshold | below the threshold | below the threshold | below the threshold | below the threshold | below the threshold | below the threshold | below the threshold | below the threshold | 4 | below the threshold | below the threshold | 3.47 | NVYGTESVKI [GRIA3, P42263] | pKd (NHERF3_4, Q5T2W1): below the threshold; pKd (NHERF4_1, Q86UT5-2): 3.57; pKd (CARD11, Q9BXL7): below the threshold; pKd (DLG4_2, P78352): below the threshold; pKd (HTRA1, Q92743): 3.98; pKd (LAP2, Q96RT1): below the threshold
